These results are taken from patent WO2020259667A1 (dated 2020).

Assay [1] addresses T1, human OX40-His protein (Sino Biological 10481-H08H) (human, UniProt P43489 29-216).
T1 construct: Bought protein, used as the analyte in Biacore; not shown: His tag
T1 sequence (looked up): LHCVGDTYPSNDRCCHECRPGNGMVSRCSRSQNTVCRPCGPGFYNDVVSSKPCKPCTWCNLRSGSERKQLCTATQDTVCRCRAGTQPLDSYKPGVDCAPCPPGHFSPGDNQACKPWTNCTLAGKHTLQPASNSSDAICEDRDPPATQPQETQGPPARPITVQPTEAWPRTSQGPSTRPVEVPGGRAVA
Kind of assay: SPR, Biacore T200; antibody amine-coupled to a CM5 chip, human OX40-His as analyte, 1:1 Langmuir model. On the technique in general: SPR reads the build-up and loss of mass on a sensor chip optically.

Assay [2] deals with T2, human OX40-Fc, biotin-labelled (OX40 Leu 29-Ala 216, Accession NP_003318, fused with Fc); Acro Biosystems … (human, UniProt P43489 29-216, labelled with biotin (sites not given)).
T2 construct: range 29-216; Bought from Acro Biosystems and expressed in HEK293; also called human Bio-OX40-FC; not shown: Fc tag of the bought protein
T2 sequence (looked up): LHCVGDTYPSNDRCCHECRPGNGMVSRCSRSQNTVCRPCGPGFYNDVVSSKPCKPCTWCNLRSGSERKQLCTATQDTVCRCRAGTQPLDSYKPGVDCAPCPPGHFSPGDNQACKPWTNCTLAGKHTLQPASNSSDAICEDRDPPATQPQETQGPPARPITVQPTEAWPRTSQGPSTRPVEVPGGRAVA
Description: blocking ELISA: OX40 ligand coated on the plate, serially diluted 2G3 pre-incubated with biotinylated human OX40-Fc, SA-HRP detection; competitor OX40L.

Assay [3] has as its target T3, human OX40 on Jurkat-NF-Kb luc-hOX40 cells (human, UniProt P43489 29-277).
T3 sequence (looked up): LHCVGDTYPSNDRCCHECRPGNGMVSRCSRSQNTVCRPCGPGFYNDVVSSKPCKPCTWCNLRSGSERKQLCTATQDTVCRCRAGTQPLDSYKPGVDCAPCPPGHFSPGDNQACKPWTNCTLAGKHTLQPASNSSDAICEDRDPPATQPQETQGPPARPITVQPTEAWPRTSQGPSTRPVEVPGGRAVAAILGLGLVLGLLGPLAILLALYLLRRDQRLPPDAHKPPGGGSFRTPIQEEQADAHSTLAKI
Kind of assay: cell-based or functional assay.

Assay [4] concerns the target human OX40 on Jurkat-NF-Kb luc-hOX40 cells (human) (UniProt P43489). Description: cell-based or functional assay.

B1: 2G3 (humanized anti-OX40 antibody, hu2G3 VH1.1 + hu2G3 VL1) (antibody, human IgG1, kappa, V domains shown)
VH: QVQLQESGPGLVKPSETLSLTCTVSGYSISRYSVHWVRQPPGKGLEWIGMIWDGGNTDYNAALKSRFTISRDNAKNTLYLQMNSLRAEDTAVYYCARNPLYFSYAMDYWGQGTLVTVSS
VL: DIQMTQSPSSLSASVGDRVTITCRASQDISNYLNWYQQKPDQSPKLLIIYTSRLQSGVPSRFSGSGSGTDYTLTISSLQPEDFATYYCQQVNTFPFTFGQGTKLEIKR
notes: Format is IgG1/kappa; also called drug A; humanized 2G3 antibody
A word on the Kd: it is the equilibrium constant for the complex coming apart. As usually defined, the koff is a measure of how fast the partners let go of each other. Read a low koff as a long-lived complex. The kon is the rate constant with which the complex forms. A higher kon goes with fast association. In general, IC50 refers to the point on the concentration scale where inhibition reaches its midpoint. A low value points to greater potency in that assay. Take B1: in assay [1], the affinity, expressed as Kd, was 4.63 nM; the koff is 0.00202 s⁻¹; the kon was determined as 437000 M⁻¹ s⁻¹. For the same molecule, the half-maximal inhibitory concentration (IC50) in assay [2] is 1.88 nM. Further, in assay [3], the “EC50(nM), luciferase reporter gene (RLU) in Jurkat-NF-Kb luc-hOX40 cells mixed with Raji cells on an anti-CD3 coated plate” value came to 2.29 nM.

B2: chimeric antibody Ch2G3 (m2G3 variable regions with human IgG1 and human Kappa constant regions) (antibody, from another filing, V domains shown)
VH: QVQLKESGPGLVASSQSLSITCTVSGFSLSRYSVHWVRQPPGKGLEWLGMIWDGGNTDYNSALKSRLSISKDNSKSQVFLKMNSLQTDDTAMYYCARNPLYFSYAMDYWGQGTSVTVSS
VL: DIQMTQSTSSLSASLGDRVTISCRASQDISNYLNWYQQKPDGTVKLLIIYTSRLQSGVPSRFSGSGSGTDYSLTISNLEQEDIATYFCQQVNTFPFTFGSGTKLEIK
Molecule B2 had an EC50(nM), luciferase reporter gene (RLU) in Jurkat-NF-Kb luc-hOX40 cells mixed with Raji cells on an anti-CD3 coated plate in assay [4] of 0.637 nM.
